experiment: soluble on expression in E. coli; label from the status in PepcDB or PDB records

Sequence | soluble on expression in E. coli
QVPPSFFQRIYRYHREHGGRFGTVHDVGAGIGPYAGELRSQFPHVIVSDIVPKNVQLAEAHLGRDGFRYRAAPVEVADDLPPGSVDLAFATNVMHFADQHAAMQAIATQLRPGGTFACAGFGPARFDDPDIQDVWERISQQGGRILLGMAEHPPDTINVMSRSSKEYNVAPLEPQWFRPGALRIRLNMAQGGITGLLPPERQQEVTDPDFAGPRDVVVYETNEEWRFETDWEGFLQHFRSFPHAGADPAAFTGLLQELKDLLDEGRCLRGCWPATLILATR | not soluble
MGSDKIHHHHHHMEDLQRLYPIGIQTFSKIREGNFLYVDKTEYVYRMTHSASSYMFLSRPRRFGKSLLTSTLHSYFSGREELFRGLAMEKLEKEWIQYPVLHFDMSMAKHVDKDKLMNLLDFMLTEHERTLGIDAAGTDPNLRLTNLIKRAYEQTGRKVVVLIDEYDAPLLDVVHERENLGVLRDVMRNFYSPLKACDPYLRYVFLTGITKFSQLSIFSELNNIKNISMDEPYAAICGITENEILTQMKEDVDRMAVKLNITAEEVLAKLKENYDGYHFTYPSPDIYNPFSLLNAFADGKFNSYWFGSGTPTYLIKMLDKFGVEPSEIGNKLAAVEEFDAPTETMSSITPLLYQSGYVTIKDYDKELELYTLDIPNKEVRVGLMRSLLPYYVTNDTREATNMVAFISRDIR | not soluble
MPSETLWEIAKAEVEKRGINGSEGDGAEIAEKFVFFIGSKNGGKTTIILRCLDRDEPPKPTLALEYTYGRRAKGHNTPKDIAHFWELGGGTSLLDLISIPITGDTLRTFSLVLVLDLSKPNDLWPTMENLLQATKSHVDKVIMKLGKTNAKAVSEMRQKIWNNMPKDHPQDHELIDPFPVPLVIIGSKYDVFQDFESEKRKVICKTLRFVAHYYGASLMFTSKSEALLLKIRGVINQLAFGIDKSKSICVDQNKPLFITAGLDSFGQIGSPPVPENDIGKLHAHSPMELWKKVYEKLFPPKSINTLKDIKDPARDPQYAENEVDEMRIQKDLELEQYKRSSSKSWKQIELDS | not soluble
MGSDKIHHHHHHMEGKVDVLLTWLKKSDKFYIAPNISICESPETGRGIVLSHGSIRKNDIIVSVPSSKQLNFHTILYHISKFNKELNIPGITIDRKPINYEDNIIEAENKAWADPRYGLYSELSKEFLLSLSSFQLVSFYILVENFLLPKWTHNEIYSDWKPFFDVWPSMEELRSIPAIWNCDPNSRYHSLIEYLPAASRKHMARISGLVREDWETISEVVLKWNEIYGSLSCTKNSDKFTSDELFSLFVHVYFIINSRCLYAKIPLKIEDSPSNFTLVPYVDFMNHICESDLHCYPQLSPQLRSEGENIIGIGQFTIRCGDHLYDNINEELFLNYGAHSNDFLLNEYGFVVDGNKWNYLDISDEIIELIDDDKKEVKTFLLEHDYWGDYTINETDISYRIFVALNYYVTRDERRVRKFIEGYISEDYFKPKISSVLKELLVSLTAKYTKTLSELTEKVSNLENNLCLQNLITIYKGYIKILTQHLQDLQS | not soluble
MAHHHHHHMSDLSTAHASQGYRFDPSRMNGCLHDTIIFKRLPSRLRHSTGSRTRSLRVNRPAVE | soluble
GPHSMRYYETATSRRGLGEPRYTSVGYVDDKEFVRFDSDAENPRYEPQVPWMEQEGPEYWERITQVAKGQEQWFRVNLRTLLGYYNQSAGGTHTLQRMYGCDVGSDGRLLRGYEQFAYDGCDYIALNEDLRTWTAADMAAQITRRKWEQAGAAEYYRAYLEGECVEWLHRYLKNG | soluble
MSVSNMPPIDRAEQSTAHEIQQAKVIDLNDRVLNLDNPDDKMISAFANYAVQTENWQQNALQALTSDKKGLTPEKLLVLQDHVLNYNVEVSLVGTLARKIVAAVETLTRS | soluble
MSFFPGNDPVAGDAFACDAIENLIIPRTSDIGGFAVRRALPTRQRRLVGPFIFFDRMGPAILKAGEALDVKPHPHIGLSTVTYLFDGEIKHRDSLGTELVIRPGDINLMTAGRGIVHSERTPENLRGHPLSMSGLQTWLALPDHMEEIAPAFAHTAKEDMPLIDIKGASGRVVIGEFEGLTSPVSAFTDTLYVDLSLEPGVKFPFSADHEERAIYILSGSLDVAGDIFAADQLLVFRPGDDITLQAGSNGCHIMIFGGAALNQRRYIWWNFVSSSKERIEQAKQEWRTGRFDIVPGDEEEFVPLPEG | not soluble
MSLSDVSRILKEARSQSRLTTLDYAEQIFDDFMELHGDRHFADDGAIVGGIGLLDGQAVTVIGVQKGKNLQDNLNRNFGQPNPEGYRKALRLMKQAEKFKRPVVTFINTAGAYPGIGAEERGQGEAIARNLLEMSDLKVPIIAIIIGEGGSGGALALAVADKVWMLEHTMYAVLSPEGFASILWKDGSRSIEAAELMKITAGELLKMEVVDKVIPEHGYFSSEIIQMLKTNLIEELKNLDQYPLNDLLEKRYQRFRKYEGHHHHHH | soluble
MGSDKIHHHHHHMADDQEKLLIDEEETVQIKDLNKVTTVNDTDLLLLDDGAASSNAITFKNFLDASKDKIFKGEGLDYFKQIIKSTIAEELAADKDFVEKIYAKITDKLINNDSTNISNLFSKIKSRLTDSISSATLSRSDHLLIMPSSDTIQKTPVPKHILGVPSNLAYGSITRSTTLYPSDYENNAIFINMEDNDDVTLIFSKSYDNSPVYLDIEIQVKINDNRMQKKSLKLQYSDETTYNRVYEIAGPRGLFTRIPIYKGWYVQKRASLYGDPVPDLLKL | not soluble
MSVIYQTTITRIGQSAKEALGEQMLITFREGAPADIEEFCFIHCHGELTGALQPGARCELGQHCYPVTAVGSVAEQNLRELGHITLRFDGLREAEFPGTVHVAGPVPDDIAPGCILTFVA | not soluble
MKLNVDGLLVYFPYDYIYPEQFSYMRELKRTLDAKGHGVLEMPSGTGKTVSLLALIMAYQRAYPLEVTKLIYCSRTVPEIEKVIEELRKLLNFYEKQEGEKLPFLGLALSSRKNLCIHPEVTPLRFGKDVDGKCHSLTASYVRAQYQHDTSLPHCRFYEEFDAHGREVPLPAGIYNLDDLKALGRRQGWCPYFLARYSILHANVVVYSYHYLLDPKIADLVSKELARKAVVVFDEAHNIDNVCIDSMSVNLTRRTLDRCQGNLETLQKTVLRIKETDEQRLRDEYRRLVEGLREASAARETDAHLANPVLPDEVLQEAVPGSIRTAEHFLGFLRRLLEYVKWRLRVQHVVQESPPAFLSGLAQRVCIQRKPLRFCAERLRSLLHTLEITDLADFSPLTLLANFATLVSTYAKGFTIIIEPFDDRTPTIANPILHFSCMDASLAIKPVFERFQSVIITSGTLSPLDIYPKILDFHPVTMATFTMTLARVCLCPMIIGRGNDQVAISSKFETREDIAVIRNYGNLLLEMSAVVPDGIVAFFTSYQYMESTVASWYEQGILENIQRNKLLFIETQDGAETSVALEKYQEACENGRGAILLSVARGKVSEGIDFVHHYGRAVIMFGVPYVYTQSRILKARLEYLRDQFQIRENDFLTFDAMRHAAQCVGRAIRGKTDYGLMVFADKRFARGDKRGKLPRWIQEHLTDANLNLTVDEGVQVAKYFLRQMAQPFHREDQLGLSLLSLEQLESEETLKRIEQIAQQL | not soluble
MSLGSGHAGKARSAVTTTDADWKPVADALGRSGKLGDNNTAYRINLPRNDLHITSYGVDIKPGLSLGGYAAFARYDNNETLLMGDLVITEEELPKVTDALQAHGIAQTALHKHLLQQDPPVWWTHIHGMGDAARLAQGLKAALDATTIGPPTPPPARQPPVDIDVAGVDQALGRKGTQDGGLMKYSIPRKDTIIEDGHVLPAVSLNLTTVINFQPVGRGRAAINGDFILIAPEVQEVIRAMRAGNITIVELHNHGLTEEPRLFYMHYWAVDDAVTLARALRPAMDATNLQSEGHHHHHH | soluble
MGSDKIHHHHHHMNNIIATGFNTASTDGELDSLERELRRLEAIGVDTVELALSSLDLIAGGRIVKERGDRLRTLLETFSFRYTVHGLVSSNFMDPATRRHQVDAAKALVEICDSIDARVLVQHAGFLRADQIAQRAGADERQCEALLELGEHAKAYGIRIAFENIFTTEPGQYRQTPAEVAATVKAVNHPDVVALIDFSHAYLESNYRGLDFRDQLRAMAPVLGAPGRRLSRRTATTRIVVITDGGMECSTGWTS | not soluble
MGSDKIHHHHHHMKKLALISLDGNGIYNLKYMPFLSELAEKGDIFTVDSIFPTLTDLVHTTVMTGVEPRHHWVVENGYYDRLSGVRVKFYEYDVAFNPHKVIKAPLIQDILRQRGVRIASVSGYTMPPFSNVDVRIFPPFFSSDELYRRHGRDWKKDVWVLNSALYLYEECKPDLLLVHFASIDGMQHDHGPESREALKAVETVDSAIRALWERLKDEYAFIIFADHGQEEVHTWVNLREYLRNKGIETLRVSSGGGVHVYLKDPREREDAYEVLRRAPGVKAVFLREDLPYLNAPVSGDLIVSAKEGFWFCHHRECKGIKGKSYWVRGMHGSLNERVVKVPLVLWNLEAKKEEATLYDIAPTILKFFGVEKRVEMIGKSLI | not soluble
GPGSMQEEAISSAATGVGHVMVTFFTDSYAKAMPEESYAVPLNVLPEGLNVLVQSVLSVNDQVFDFLYNGEYITTTLQKFLSRRGVSTEELVNVEYTPALQAKESSHLPHDDWVSSVRVPFVGHSELLLTGSYDRCIRLWDADDCVAIGAHHDECVKEVVVHPMKPRSTATNTTRDSVKKRARSSLLEDFYCVSCSKDGRAAAWVFNATASKFQLLSSVKAHTDAIESIDISPGAGKYVATASWDCTVKVFEWSQVVDGATEPSAKEPLVSFTDHTRPALSCRFSAAKGAALLYSSGLDGTLKCMDVETAVLQKQYIGDHPVQGLAVRTVGGGGGGDLIIAACTDNRARLYDTRVGESTGSVKVFSGHKQWLYAASWLWRPDEGEVNGGNFFATASEDSTVRLWDLRCGTNALLTLDTSHTDGVLDVTYSGNGEIVSCGKDNSTKSFQCFKGDSLLN | not soluble
MSDGQLVQRRRKAEEPVTEKVDEASGDSAQSSDQEDNDKGTRLTLMEQILLLGLKDREGYTSFWNDCISSGLRGCVLIELVLRGRIQLEGGGMRRKNLLNRKVTVKSSEPTGDVILDEALRHMKETNPPETVTSWIEYLSGETWNPLKLRYQLRNVRERLAKNLVEKGVLTTDKQNFLLFEITTHPLSDGNQKTKLIKEVQEAVLGKWTNDVHRMDKKMLSLIVLAHASDVLENAFAPLSDQDYEVKQMLEILFFSGKLAHFEPKNVAMKRVRSLLDLDYDQQAEKKGNDVMWAVFEAFSK | soluble
MGHHHHHHSHMDDKKKKRSPKPCLAQPAQAPGTLRRVPVPTSHSGSLALGLPHLPSPKQRAKFKRVGKEKCRPVLAGGGSGSAGTPLQHSFLTEVTDVYEMEGGLLNLLNDFHSGRLQAFGKECSFEQLEHVREMQEKLARLHFSLDVCGEEEDDEEEEDGVTEGLPEEQKKTMADRNLDQLLSNLEDLSNSMYPFQGTRLCVCVPERSVSSSPALQEYSHTTNFPTSCSPVRFSHRLPKPRYRNLEFPQN | not soluble
MAHHHHHHMHVQARYQRITEAYAVLSDPEKRRAYDAKHGVNFQSRLARLQTVIGHHNTMATQRSTTSCKTACLASTSSPTTDEHDAQHLHAASHKDSAERTVGDDDDEDYDPNDVLAPPRGAPHQGRSSDFYSDDSRDAHGEGDYIARLFSLHLRVGAEAAPKTRNGVPVVQYQAITLTRAYSPPESPYARTWGLVFKKNELVDLDGENLEELARITGLAAVPFPSVVQQINYTMAGTDDRLAAPAISALRIRVHTGLSGEPCHGPNGVDQY | not soluble
